To fix the notation:
B1: C22orf15 (parent)
chain: ITQSWQVSVRVQPRGRAHLLPNPY
B2: TMEM40 (parent)
chain: YGETDFHKQDGKAGLFSQEQYERN
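Further: lentivirally expressed fusions sorted by FACS into six bins by GFP to DsRed ratio, PSI derived from sequencing read proportions per bin multiplied by bin number.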

Variants of B1 are the subject of the first data set. The data set can be described thus: protein stability index of a GFP-peptide fusion (GPS, HEK-293T) (PSI 1-6); higher = more stable. The note with it: c terminus: a fixed tail appended.
Take ITQSWQVSVRVQPRGRAHCLPNPY [L19C]: the protein stability index came to 2.07.

On to ITQSWQVSVRVQPRGRAHHLPNPY [L19H], for which the protein stability index came to 1.92.

ITQSWQVSVRVQPRGRAHKLPNPY [L19K]: the protein stability index came out at 2.33.

In the case of ITQSWQVSVRVQPRGRAHVLPNPY [L19V], the protein stability index was 1.6.

For ITQSWQVSVRVQPRGQAHLLPNPY [R16Q], the protein stability index was 1.

Consider ITQSWQVSVRVQPRGVAHLLPNPY [R16V], for which the protein stability index turned out to be 1.24.

For the variant ITQSWQVSVRVQPRGYAHLLPNPY [R16Y], the protein stability index came out at 3.74.

For the variant ITQSWQVSVRVQPRGFAHLLPNPY [R16F], the protein stability index stood at 3.25.

Consider ITQSWQVSVRVQPRGTAHLLPNPY [R16T], for which the protein stability index worked out at 2.14.

In the case of ITQSWQVSVRVQPRGEAHLLPNPY [R16E], the protein stability index is 1.24.

Take ITQSWQVSVRVQPRGDAHLLPNPY [R16D]: the protein stability index turned out to be 2.88.

ITQSWQVSVRVQPRGWAHLLPNPY [R16W]: the protein stability index came to 2.89.

In the case of ITQSWQVSVRVQPRGIAHLLPNPY [R16I], the protein stability index amounted to 2.26.

Consider ITQSWQVSVRVQPRGLAHLLPNPY [R16L], for which the protein stability index came to 1.69.

As for ITQSWQVSVRVQPRGPAHLLPNPY [R16P], the protein stability index was 2.07.

For ITQSWQVSVRVQPRGNAHLLPNPY [R16N], the protein stability index was found to be 1.4.

With ITQSWQVSVRVQPRGCAHLLPNPY [R16C], the protein stability index was 4.64.

For ITQSWQVSVRVQPRGSAHLLPNPY [R16S], the protein stability index is 2.21.

In the case of ITQSWQVSVRVQPRGHAHLLPNPY [R16H], the protein stability index was determined as 1.89.

As to ITQSWQVSVRVQPRGRAHLLPNPT [Y24T], the protein stability index was 2.34.

In the case of ITQSWQVSVRVQPRGRAHLLPNPD [Y24D], the protein stability index was found to be 1.75.

As for ITQSWQVSVRVQPRGRAHLLPNPA [Y24A], the protein stability index came out at 1.39.

For the variant ITQSWQVSVRVQPRGRAHLLPNPP [Y24P], the protein stability index amounted to 1.15.

As to ITQSWQVSVRVQPRGRAHLLPNPK [Y24K], the protein stability index turned out to be 2.19.

ITQSWQVSVRVQPRGRAHLLPNPH [Y24H]: the protein stability index is 1.07.

Turning to ITQSWQVSVRVQPRGRAHLLPNPQ [Y24Q], the protein stability index was 1.47.

Consider ITQSWQVSVRVQPRGRAHLLPNPR [Y24R], for which the protein stability index worked out at 2.1.

With ITQSWQVSVRVQPRGRAHLLPNPI [Y24I], the protein stability index came to 2.29.

Consider ITQSWQVSVRVQPRGRAHLLPNPF [Y24F], for which the protein stability index is 2.47.

On to ITQSWQVSVRVQPRGRAHLLPNPS [Y24S], for which the protein stability index is 1.34.

On to ITQSWQVSVRVQPRGRAHLLPNPW [Y24W], for which the protein stability index is 2.93.

Take ITQSWQVSVRVQPRGRAHLLPNPN [Y24N]: the protein stability index was 1.54.

With ITQSWQVSVRVQPRGRAHLLPNPC [Y24C], the protein stability index is 1.71.

For the variant ITQSWQVSVRVQPRGRAPLLPNPY [H18P], the protein stability index came to 2.7.

As for ITQSWQVSVRVQPRGRANLLPNPY [H18N], the protein stability index was 2.99.

On to ITQSWQVSVRVQPRGRAQLLPNPY [H18Q], for which the protein stability index was 2.99.

On to ITQSWQVSVRVQPRGRACLLPNPY [H18C], for which the protein stability index is 1.49.

As for ITQSWQVSVRVQPRGRAILLPNPY [H18I], the protein stability index came out at 1.29.

For ITQSWQVSVRVQPRGRASLLPNPY [H18S], the protein stability index came to 1.43.

ITQSWQVSVRVQPRGRATLLPNPY [H18T]: the protein stability index amounted to 2.13.

With ITQSWQVSVRVQPRGRAALLPNPY [H18A], the protein stability index is 2.9.

Turning to ITQSWQVSVRVQPRGRADLLPNPY [H18D], the protein stability index was 2.29.

Regarding ITQSWQVSVRVQPRGRAYLLPNPY [H18Y], the protein stability index came out at 1.95.

For the variant ITQSWQVSVRVQPRGRAVLLPNPY [H18V], the protein stability index worked out at 2.19.

Regarding ITQSWQVSVRVQPRGRALLLPNPY [H18L], the protein stability index was found to be 3.13.

As for ITQSWQVSVRVQPRGRAMLLPNPY [H18M], the protein stability index worked out at 1.83.

As for ITQSWQVSVRVQPRGRAKLLPNPY [H18K], the protein stability index turned out to be 1.74.

With ITQSWQVSVRVQPRGRAELLPNPY [H18E], the protein stability index was 1.36.

ITQSWQVSVRVQPRGRAHLLPNWY [P23W]: the protein stability index worked out at 1.11.

Take ITQSWQVSVRVQPRGRAHLLPNRY [P23R]: the protein stability index came to 1.87.

ITQSWQVSVRVQPRGRAHLLPNDY [P23D]: the protein stability index was 1.42.

Regarding ITQSWQVSVRVQPRGRAHLLPNCY [P23C], the protein stability index is 1.6.

ITQSWQVSVRVQPRGRAHLLPNFY [P23F]: the protein stability index turned out to be 3.34.

As for ITQSWQVSVRVQPRGRAHLLPNEY [P23E], the protein stability index was determined as 1.51.

As to ITQSWQVSVRVQPRGRAHLLPNKY [P23K], the protein stability index was 2.09.

For the variant ITQSWQVSVRVQPRGRAHLLPNHY [P23H], the protein stability index turned out to be 1.27.

Regarding ITQSWQVSVRVQPRGRAHLLPNLY [P23L], the protein stability index turned out to be 1.46.

Take ITQSWQVSVRVQPRGRAHLLPNQY [P23Q]: the protein stability index is 1.93.

With ITQSWQVSVRVQPRGRAHLLPNGY [P23G], the protein stability index worked out at 1.32.

In the case of ITQSWQVSVRVQPRGRAHLLPNIY [P23I], the protein stability index came out at 2.08.

For the variant ITQSWQVSVRVQPRGRAHLLPNAY [P23A], the protein stability index is 1.34.

Regarding ITQSWQVSVRVQPRGRAHLLPNSY [P23S], the protein stability index was determined as 1.92.

For ITQSWQVSVRVQPRGRAHLLPNNY [P23N], the protein stability index stood at 3.05.

Turning to ITQSWQVSVRVQPYGRAHLLPNPY [R14Y], the protein stability index was determined as 1.85.

For the variant ITQSWQVSVRVQPPGRAHLLPNPY [R14P], the protein stability index stood at 1.68.

In the case of ITQSWQVSVRVQPIGRAHLLPNPY [R14I], the protein stability index was determined as 1.54.

As to ITQSWQVSVRVQPHGRAHLLPNPY [R14H], the protein stability index turned out to be 2.

On to ITQSWQVSVRVQPNGRAHLLPNPY [R14N], for which the protein stability index came out at 1.98.

In the case of ITQSWQVSVRVQPAGRAHLLPNPY [R14A], the protein stability index amounted to 3.37.

On to ITQSWQVSVRVQPFGRAHLLPNPY [R14F], for which the protein stability index amounted to 1.78.

On to ITQSWQVSVRVQPKGRAHLLPNPY [R14K], for which the protein stability index was found to be 2.25.

For ITQSWQVSVRVQPTGRAHLLPNPY [R14T], the protein stability index came to 1.05.

Consider ITQSWQVSVRVQPQGRAHLLPNPY [R14Q], for which the protein stability index is 2.15.

Regarding ITQSWQVSVRVQPEGRAHLLPNPY [R14E], the protein stability index is 2.73.

With ITQSWQVSVRVQPDGRAHLLPNPY [R14D], the protein stability index was found to be 1.87.

Take ITQSWQVSVRVQPLGRAHLLPNPY [R14L]: the protein stability index was found to be 2.15.

In a further data set the parent is B2. The data set is described as above. Particulars: c terminus: a fixed tail appended.
On to WGETDFHKQDGKAGLFSQEQYERN [Y1W], for which the protein stability index came to 4.37.

Regarding NGETDFHKQDGKAGLFSQEQYERN [Y1N], the protein stability index is 4.77.

For PGETDFHKQDGKAGLFSQEQYERN [Y1P], the protein stability index worked out at 5.22.

Turning to DGETDFHKQDGKAGLFSQEQYERN [Y1D], the protein stability index turned out to be 4.92.

With MGETDFHKQDGKAGLFSQEQYERN [Y1M], the protein stability index stood at 4.38.

Regarding RGETDFHKQDGKAGLFSQEQYERN [Y1R], the protein stability index worked out at 5.01.

For the variant CGETDFHKQDGKAGLFSQEQYERN [Y1C], the protein stability index worked out at 4.55.

With TGETDFHKQDGKAGLFSQEQYERN [Y1T], the protein stability index was 5.14.

HGETDFHKQDGKAGLFSQEQYERN [Y1H]: the protein stability index is 4.38.

As to GGETDFHKQDGKAGLFSQEQYERN [Y1G], the protein stability index worked out at 4.5.

For the variant QGETDFHKQDGKAGLFSQEQYERN [Y1Q], the protein stability index is 5.3.

Consider EGETDFHKQDGKAGLFSQEQYERN [Y1E], for which the protein stability index was determined as 5.36.

For IGETDFHKQDGKAGLFSQEQYERN [Y1I], the protein stability index worked out at 4.58.

As for LGETDFHKQDGKAGLFSQEQYERN [Y1L], the protein stability index came out at 5.45.

Turning to AGETDFHKQDGKAGLFSQEQYERN [Y1A], the protein stability index was determined as 4.89.

KGETDFHKQDGKAGLFSQEQYERN [Y1K]: the protein stability index amounted to 5.01.

As to SGETDFHKQDGKAGLFSQEQYERN [Y1S], the protein stability index was found to be 5.24.

With FGETDFHKQDGKAGLFSQEQYERN [Y1F], the protein stability index was 4.88.

For the origin of these results see the supplement of paper PMC10567573.
